Article PMC7479153, “GFP fluorescence tagging alters dynamin-related protein 1 oligomerization dynamics and creates disassembly-refractory puncta to mediate mitochondrial fission” (Scientific Reports, 2020)

B1: mEGFP-Drp1 (N-terminally mEGFP-tagged Drp1 isoform 3), recombinant from E. coli (natural protein, human, UniProt O00429-4 1-699, looked up)
chain: MEALIPVINKLQDVFNTVGADIIQLPQIVVVGTQSSGKSSVLESLVGRDLLPRGTGIVTRRPLILQLVHVSQEDKRKTTGEENGVEAEEWGKFLHTKNKLYTDFDEIRQEIENETERISGNNKGVSPEPIHLKIFSPNVVNLTLVDLPGMTKVPVGDQPKDIELQIRELILRFISNPNSIILAVTAANTDMATSEALKISREVDPDGRRTLAVITKLDLMDAGTDAMDVLMGRVIPVKLGIIGVVNRSQLDINNKKSVTDSIRDEYAFLQKKYPSLANRNGTKYLARTLNRLLMHHIRDCLPELKTRINVLAAQYQSLLNSYGEPVDDKSATLLQLITKFATEYCNTIEGTAKYIETSELCGGARICYIFHETFGRTLESVDPLGGLNTIDILTAIRNATGPRPALFVPEVSFELLVKRQIKRLEEPSLRCVELVHEEMQRIIQHCSNYSTQELLRFPKLHDAIVEVVTCLLRKRLPVTNEMVHNLVAIELAYINTKHPDFADACGLMNNNIEEQRRNRLARELPSAVSRDKVASGGGGVGDGVQEPTTGNWRGMLKTSKAEELLAEEKSKPIPIMPASPQKGHAVNLLDVPVPVARKLSAREQRDCEVIERLIKSYFLIVRKNIQDSVPKAVMHFLVNHVKDTLQSELVGQLYKSSLLDDLLTESEDMAQRRKEAADMLKALQGASQIIAEIRETHLW
notes: dynamin-related protein 1 (Drp1), human, isoform 3, printed length 699 aa; mEGFP is EGFP with A206K (also denoted A207K); fusion sub-cloned from pEGFP-C1 into pET28a; Monomer ~111 kDa as printed; source: E. coli (pET28a), purified to apparent homogeneity, then gel filtration (ENrich SEC 650); not shown: mEGFP, N-terminal, kept
B2: Drp1-BODIPY FL (Drp1 labeled on surface Cys with BODIPY-FL C1-iodoacetamide) (natural protein, human, UniProt O00429-4 1-699, looked up)
chain: B1 chain
modifications: BODIPY-FL iodoacetamide on Cys; primary targets of thiol modification are surface residues C505 and C607; ~2 mol dye/mol protein
notes: dynamin-related protein 1 (Drp1), human, isoform 3, printed length 699 aa; also called BODIPY-labeled Drp1; dye-labeled Drp1; source: E. coli, purified, then labeled with thiol-reactive BODIPY-FL iodoacetamide
B3: Drp1-AF488 (Drp1 labeled on surface Cys with Alexa Fluor 488 C5-maleimide) (natural protein, human, UniProt O00429-4 1-699, looked up)
chain: B1 chain
modifications: AF488 maleimide on Cys; primary targets of thiol modification are surface residues C505 and C607; ~2 mol dye/mol protein
notes: dynamin-related protein 1 (Drp1), human, isoform 3, printed length 699 aa; also called AF488-labeled Drp1; dye-labeled Drp1; source: E. coli, purified, then labeled with thiol-reactive AF488 maleimide
B4: Drp1-mEGFP (C-terminally mEGFP-tagged Drp1 isoform 3), recombinant from E. coli (natural protein, human, UniProt O00429-4 1-699, looked up)
chain: B1 chain
B5: Drp1-wt (N-terminal 6XHis-tagged human dynamin-related protein 1, isoform 3) (natural protein, UniProt O00429-4 1-699, looked up)
chain: B1 chain
notes: dynamin-related protein 1 (Drp1), human, isoform 3, printed length 699 aa; also called unlabeled Drp1-wt; native-like His-tagged Drp1; source: E. coli, purified to apparent homogeneity, then gel filtration (ENrich SEC 650)
B6: mEGFP-Drp1 (N-terminally mEGFP-tagged Drp1 isoform 3), expressed in mammalian cells (natural protein, human, UniProt O00429-4 1-699, looked up)
chain: B1 chain
notes: dynamin-related protein 1 (Drp1), human, isoform 3, printed length 699 aa; mEGFP is EGFP with A206K; In wt MEFs and HeLa cells endogenous Drp1 is also present; also called cytosolic mEGFP-Drp1; source: wt MEFs, Drp1-null MEFs and HeLa cells, transfected (pEGFP-C1), in living cells; not shown: mEGFP, N-terminal, kept

Columns and labels:
[1] = biological target: the molecule itself; assay: cell-based or functional assay
[2] = biological target: the molecule itself; assay: SEC-MALS; Superose 6 10/300 GL, 20 mM HEPES pH 7.5, 150 mM KCl, 1 mM DTT; loading protein concentration varied, 500 uL injected; no nucleotide
[3] = biological target: the molecule itself; assay: fluorescence correlation spectroscopy (single-point FCS); 0.5 uM fluorescently labeled protein in solution, 25 C, 20 mM HEPES pH 7.5, 150 mM KCl, 1 mM DTT; without and with 1 mM GMP-PCP and 1 mM MgCl2 (30 min); unlabeled Drp1-wt (1 uM final, 2X molar excess) added where it is the partner
[4] = biological target: the molecule itself; assay: number and brightness (N&B) analysis; living transfected wt MEFs, Drp1-null MEFs and HeLa cells, 37 C; brightness normalised to that of mEGFP alone taken as the monomer; puncta on mitochondria left out

Row | Protein | decrease in GTP turnover (kcat) relative to Drp1-wt, basal and cardiolipin-stimulated, malachite green assay, 0.5 uM protein [1] [%] | stoichiometry N [2] | binding result [3] | also measured
1 | B1 | > 50 | ≥ 4 |  | 
2 | B2 |  |  | binds | 
3 | B3 |  |  | binds | 
4 | B4 | > 50 |  |  | 
5 | B5 |  | ≥ 2 |  | 
6 | B6 |  |  |  | stoichiometry N [4]: ~4
